These results are taken from publication PMC3830645.

Test [1] concerns the target EGF/tEGFR: purified tail-truncated EGFR (aa 25–1022) with EGF, solubilized in detergent or reconstituted in nanodiscs.
Test [2] shares this target. The source holds these as a separate data set.

B1: His6-Mig6 segment 1+2 (aa 336–412) mutant Y394E (domain or fragment)
chain: KSLPSYLNGVMPPTQSFAPDPKYVSSKALQRQNSEGSASKVPCILPIIENGKKVSSTHEYLLPERPPYLDKYEKFFR
On to B1, for which the IC50 of inhibition of tEGFR kinase activity in test [1] is 740 nM.

B2: unligated GST-Mig6 (aa 336–391) (domain or fragment)
chain: KSLPSYLNGVMPPTQSFAPDPKYVSSKALQRQNSEGSASKVPCILPIIENGKKVPG
As to B2, the IC50 of inhibition of EGFR (tEGFR) kinase activity in test [2] was more than 3000 nM.
